± gives the uncertainty stated by the source.
B1: Receptor-interacting serine/threonine-protein kinase 2, residues 438 to 518; numbered along this chain, O43353 (parent)
chain: QWIQSKREDIVNQMTEACLNQSLDALLSRDLIMKEDYELVSTKPTRTSKVRQLLDTTDIQGEEFAKVIVQKLKDNKQMGLQ

Variants of: B1
Experiment: abundance fitness (aPCA) (normalised: wild type 0, dead -1); higher = more abundant; growth selection in yeast, the domain comes from the species named
Conditions: Homo sapiens
Work on QWIQSKREDIVNQMTEACLNQSLDALLSRDLIMKEDYELVSTKPTPTSKVRQLLDTTDIQGEEFAKVIVQKLKDNKQMGLQ [R46P] yielded an abundance fitness of -0.519 ± 0.1. In the case of QWIQSKREDIVNQMTEACLNQSLDALLSRDLIMKEDYELVSTKPTRYSKVRQLLDTTDIQGEEFAKVIVQKLKDNKQMGLQ [T47Y], the abundance fitness is reported as -0.57 ± 0.25. Work on QWIQSKREDIVNQMTEACLNQSLDALLSRDLIMKEDYELVSTKPTRVSKVRQLLDTTDIQGEEFAKVIVQKLKDNKQMGLQ [T47V] yielded an abundance fitness of -0.153 ± 0.085. QWIQSKREDIVNQMTEACLNQSLDALLSRDLIMKEDYELVSTKPTRDSKVRQLLDTTDIQGEEFAKVIVQKLKDNKQMGLQ [T47D] showed an abundance fitness of -0.152 ± 0.11. For QWIQSKREDIVNQMTEACLNQSLDALLSRDLIMKEDYELVSTKPTRGSKVRQLLDTTDIQGEEFAKVIVQKLKDNKQMGLQ [T47G], the abundance fitness was -0.185 ± 0.064. QWIQSKREDIVNQMTEACLNQSLDALLSRDLIMKEDYELVSTKPTRNSKVRQLLDTTDIQGEEFAKVIVQKLKDNKQMGLQ [T47N] showed an abundance fitness of -0.286 ± 0.3. With QWIQSKREDIVNQMTEACLNQSLDALLSRDLIMKEDYELVSTKPTRLSKVRQLLDTTDIQGEEFAKVIVQKLKDNKQMGLQ [T47L] the abundance fitness was -0.373 ± 0.097. Work on QWIQSKREDIVNQMTEACLNQSLDALLSRDLIMKEDYELVSTKPTRPSKVRQLLDTTDIQGEEFAKVIVQKLKDNKQMGLQ [T47P] yielded an abundance fitness of -0.228 ± 0.073. For QWIQSKREDIVNQMTEACLNQSLDALLSRDLIMKEDYELVSTKPTRHSKVRQLLDTTDIQGEEFAKVIVQKLKDNKQMGLQ [T47H], the abundance fitness was 0.111 ± 0.17. QWIQSKREDIVNQMTEACLNQSLDALLSRDLIMKEDYELVSTKPTRWSKVRQLLDTTDIQGEEFAKVIVQKLKDNKQMGLQ [T47W] gave an abundance fitness of -0.333 ± 0.087. QWIQSKREDIVNQMTEACLNQSLDALLSRDLIMKEDYELVSTKPTRKSKVRQLLDTTDIQGEEFAKVIVQKLKDNKQMGLQ [T47K] gave an abundance fitness of -0.031 ± 0.14. Variant QWIQSKREDIVNQMTEACLNQSLDALLSRDLIMKEDYELVSTKPTRQSKVRQLLDTTDIQGEEFAKVIVQKLKDNKQMGLQ [T47Q] has an abundance fitness of -0.145 ± 0.15. In the case of QWIQSKREDIVNQMTEACLNQSLDALLSRDLIMKEDYELVSTKPTRESKVRQLLDTTDIQGEEFAKVIVQKLKDNKQMGLQ [T47E], the abundance fitness is reported as 0.201 ± 0.15. For QWIQSKREDIVNQMTEACLNQSLDALLSRDLIMKEDYELVSTKPTRFSKVRQLLDTTDIQGEEFAKVIVQKLKDNKQMGLQ [T47F], the abundance fitness was -0.493 ± 0.33. QWIQSKREDIVNQMTEACLNQSLDALLSRDLIMKEDYELVSTKPTRRSKVRQLLDTTDIQGEEFAKVIVQKLKDNKQMGLQ [T47R] showed an abundance fitness of 0.049 ± 0.051. QWIQSKREDIVNQMTEACLNQSLDALLSRDLIMKEDYELVSTKPTRCSKVRQLLDTTDIQGEEFAKVIVQKLKDNKQMGLQ [T47C] gave an abundance fitness of -0.254 ± 0.11. In the case of QWIQSKREDIVNQMTEACLNQSLDALLSRDLIMKEDYELVSTKPTRASKVRQLLDTTDIQGEEFAKVIVQKLKDNKQMGLQ [T47A], the abundance fitness is reported as 0.121 ± 0.084. With QWIQSKREDIVNQMTEACLNQSLDALLSRDLIMKEDYELVSTKPTRMSKVRQLLDTTDIQGEEFAKVIVQKLKDNKQMGLQ [T47M] the abundance fitness was -0.431 ± 0.33. Variant QWIQSKREDIVNQMTEACLNQSLDALLSRDLIMKEDYELVSTKPTRSSKVRQLLDTTDIQGEEFAKVIVQKLKDNKQMGLQ [T47S] has an abundance fitness of -0.061 ± 0.091. With QWIQSKREDIVNQMTEACLNQSLDALLSRDLIMKEDYELVSTKPTRTSRVRQLLDTTDIQGEEFAKVIVQKLKDNKQMGLQ [K49R] the abundance fitness was -0.283 ± 0.14. With QWIQSKREDIVNQMTEACLNQSLDALLSRDLIMKEDYELVSTKPTRTSPVRQLLDTTDIQGEEFAKVIVQKLKDNKQMGLQ [K49P] the abundance fitness was -0.625 ± 0.13. In the case of QWIQSKREDIVNQMTEACLNQSLDALLSRDLIMKEDYELVSTKPTRTSWVRQLLDTTDIQGEEFAKVIVQKLKDNKQMGLQ [K49W], the abundance fitness is reported as -0.722 ± 0.38. Variant QWIQSKREDIVNQMTEACLNQSLDALLSRDLIMKEDYELVSTKPTRTSCVRQLLDTTDIQGEEFAKVIVQKLKDNKQMGLQ [K49C] has an abundance fitness of -0.81 ± 0.33. In the case of QWIQSKREDIVNQMTEACLNQSLDALLSRDLIMKEDYELVSTKPTRTSVVRQLLDTTDIQGEEFAKVIVQKLKDNKQMGLQ [K49V], the abundance fitness is reported as -0.784 ± 0.22. Variant QWIQSKREDIVNQMTEACLNQSLDALLSRDLIMKEDYELVSTKPTRTSTVRQLLDTTDIQGEEFAKVIVQKLKDNKQMGLQ [K49T] has an abundance fitness of -0.761 ± 0.22. QWIQSKREDIVNQMTEACLNQSLDALLSRDLIMKEDYELVSTKPTRTSSVRQLLDTTDIQGEEFAKVIVQKLKDNKQMGLQ [K49S] gave an abundance fitness of -0.58 ± 0.12. For QWIQSKREDIVNQMTEACLNQSLDALLSRDLIMKEDYELVSTKPTRTSIVRQLLDTTDIQGEEFAKVIVQKLKDNKQMGLQ [K49I], the abundance fitness was -0.564 ± 0.29. Work on QWIQSKREDIVNQMTEACLNQSLDALLSRDLIMKEDYELVSTKPTRTSDVRQLLDTTDIQGEEFAKVIVQKLKDNKQMGLQ [K49D] yielded an abundance fitness of -0.389 ± 0.19. QWIQSKREDIVNQMTEACLNQSLDALLSRDLIMKEDYELVSTKPTRTSEVRQLLDTTDIQGEEFAKVIVQKLKDNKQMGLQ [K49E] showed an abundance fitness of -0.576 ± 0.33. QWIQSKREDIVNQMTEACLNQSLDALLSRDLIMKEDYELVSTKPTRTSQVRQLLDTTDIQGEEFAKVIVQKLKDNKQMGLQ [K49Q] gave an abundance fitness of -0.786 ± 0.21. In the case of QWIQSKREDIVNQMTEACLNQSLDALLSRDLIMKEDYELVSTKPTRTSYVRQLLDTTDIQGEEFAKVIVQKLKDNKQMGLQ [K49Y], the abundance fitness is reported as -0.625 ± 0.46. QWIQSKREDIVNQMTEACLNQSLDALLSRDLIMKEDYELVSTKPTRTSMVRQLLDTTDIQGEEFAKVIVQKLKDNKQMGLQ [K49M] gave an abundance fitness of -0.137 ± 0.23. QWIQSKREDIVNQMTEACLNQSLDALLSRDLIMKEDYELVSTKPTRTSHVRQLLDTTDIQGEEFAKVIVQKLKDNKQMGLQ [K49H] gave an abundance fitness of -0.628 ± 0.27. In the case of QWIQSKREDIVNQMTEACLNQSLDALLSRDLIMKEDYELVSTKPTRTSAVRQLLDTTDIQGEEFAKVIVQKLKDNKQMGLQ [K49A], the abundance fitness is reported as -0.586 ± 0.16.

Source: the Human Domainome abundance scans (Beltran et al. 2025)
